# According to article PMC3203579:
# T1: AtFib2 (Arabidopsis thaliana, UniProt Q94AH9 1-320)
# T1 sequence: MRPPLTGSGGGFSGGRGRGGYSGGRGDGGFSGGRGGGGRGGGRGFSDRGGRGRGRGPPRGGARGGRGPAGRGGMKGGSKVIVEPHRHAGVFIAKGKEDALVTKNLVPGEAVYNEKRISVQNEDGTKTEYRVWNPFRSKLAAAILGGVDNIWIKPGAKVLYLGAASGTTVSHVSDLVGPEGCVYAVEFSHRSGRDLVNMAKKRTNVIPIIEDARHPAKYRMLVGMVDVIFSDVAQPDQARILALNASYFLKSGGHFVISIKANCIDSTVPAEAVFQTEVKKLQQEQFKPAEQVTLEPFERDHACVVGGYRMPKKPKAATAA
# Target: T1, AtFib2
# Assay: EMSA
binder,measurement,value
poly(A) 80 nt (ssRNA) RNA: AAAAAAAAAAAAAAAAAAAAAAAAAAAAAAAAAAAAAAAAAAAAAAAAAAAAAAAAAAAAAAAAAAAAAAAAAAAAAAAA,Kd,190 nM
